Assay results as given in doi:10.1101/2023.03.23.533937, “From Microstates to Macrostates in the Conformational Dynamics of GroEL: a Single-Molecule FRET Study” (bioRxiv, 2023).

Target: T1, double-ring GroEL construct with the same labeling positions (255C/428C) (E. coli, UniProt P0A6F5 2-548; P0A6F5 2-548, 255C | 428C, AlexaFluor 488 and AlexaFluor 594 attached at the labeling positions 255 and 428 (cysteines))
T1 construct: GroEL subunit, E. coli, with cysteines at the labeling sites E255 and D428; unmodified GroEL subunit, E. coli; GroEL has 14 subunits in two heptameric rings; That the remaining subunits are unmodified wild-type GroEL is surmised from 'the same reassembly procedure'; also called double-ring variant; double-ring construct; source: prepared using the same reassembly procedure as the labeled SR1 …
Test: intramolecular single-molecule FRET of one labeled subunit (conformational read-out); pulsed-interleaved excitation smFRET on diluted, freely diffusing labeled complexes; 1 mM ATP with a stoichiometric excess of GroES relative to GroEL (also with ADP-BeFx in place of ATP); about 22 °C
Conditions: both partners purified

binding result: binds
B1: co-chaperone GroES (natural protein, E. coli)
chain: MNIRPLHDRVIVKRKEVETKSAGGIVLTGSAAAKSTRGEVLAVGNGRILENGEVKPLDVKVGDIVIFNDGYGVKSEKIDNEEVLIMSESDILAIVEA
notes: GroES, co-chaperone of GroEL, E. coli; a heptameric complex; Source and construct of GroES may stand in the supporting information; also called co-chaperonin GroES
